Values of other authors as cited in paper PMC5830169.

Molecular target: rhodopsin (UniProt P02699)
UniProt P02699, sequence (P02699 whole entry): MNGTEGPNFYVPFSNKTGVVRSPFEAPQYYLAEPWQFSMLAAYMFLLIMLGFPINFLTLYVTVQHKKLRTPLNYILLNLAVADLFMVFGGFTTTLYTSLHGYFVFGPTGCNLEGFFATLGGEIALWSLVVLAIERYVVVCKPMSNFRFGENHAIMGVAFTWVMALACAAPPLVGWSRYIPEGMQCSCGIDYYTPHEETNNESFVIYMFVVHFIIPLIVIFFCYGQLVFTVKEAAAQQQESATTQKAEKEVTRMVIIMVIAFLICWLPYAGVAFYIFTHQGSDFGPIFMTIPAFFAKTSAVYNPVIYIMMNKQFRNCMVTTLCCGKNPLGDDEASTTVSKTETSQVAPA

Kd: 50 nM
Substance: visual arrestin (from UniProt P10523)
